Measured values as given in patent US6750197B1, “Activators of endothelial nitric oxide synthase” (Rensselaer Polytechnic Institute, priority 1996, dated 2004).

What was measured:
[1] = target: NNOS (Rattus norvegicus, UniProt P29476); experiment: CAM binding: radiolabeled CAM trapped on a membrane by NNOS adhesion; conditions: no peptide: 774 ± 40
Protocol: (§1) JX series polypeptides are approximately 30-mers derived from ENOS and NNOS inhibitory polypeptides. B058 series are shorter (6-mers to 15-mers) peptides derived from flanking loops or from shorter segments of inhibitory polypeptides. CAM binding data represents counts from radiolabeled CAM trapped on a membrane by NNOS adhesion. INOS activity was assayed by measuring oxidation of ferrous myoglobin by product NO.

[2] = target: INOS (Rattus norvegicus, UniProt Q06518); experiment: INOS activity by oxidation of ferrous myoglobin by product NO; type: biochemical; parameters: unit not given here; conditions: for INOS Activity 0.1 mg/ml: peptide 0.1 mg/ml, no peptide: 14.9 ± .56; for INOS activity 0.3 mg/ml: peptide 0.3 mg/ml, no peptide: 12.3 ± .19; for INOS Activity 1.0 mg/ml: peptide 1.0 mg/ml, no peptide: 13.0 ± .23
Protocol: as §1

[3] = target: T1, recombinant bovine ENOS (Bos taurus, UniProt P29473); experiment: NOS activity, kinetic 96-well microtiter plate assay, NADPH consumption; type: biochemical; conditions: mean ± SEM, triplicate
T1 construct: made in house; host or cells: E. coli
T1 sequence (P29473 1-1205): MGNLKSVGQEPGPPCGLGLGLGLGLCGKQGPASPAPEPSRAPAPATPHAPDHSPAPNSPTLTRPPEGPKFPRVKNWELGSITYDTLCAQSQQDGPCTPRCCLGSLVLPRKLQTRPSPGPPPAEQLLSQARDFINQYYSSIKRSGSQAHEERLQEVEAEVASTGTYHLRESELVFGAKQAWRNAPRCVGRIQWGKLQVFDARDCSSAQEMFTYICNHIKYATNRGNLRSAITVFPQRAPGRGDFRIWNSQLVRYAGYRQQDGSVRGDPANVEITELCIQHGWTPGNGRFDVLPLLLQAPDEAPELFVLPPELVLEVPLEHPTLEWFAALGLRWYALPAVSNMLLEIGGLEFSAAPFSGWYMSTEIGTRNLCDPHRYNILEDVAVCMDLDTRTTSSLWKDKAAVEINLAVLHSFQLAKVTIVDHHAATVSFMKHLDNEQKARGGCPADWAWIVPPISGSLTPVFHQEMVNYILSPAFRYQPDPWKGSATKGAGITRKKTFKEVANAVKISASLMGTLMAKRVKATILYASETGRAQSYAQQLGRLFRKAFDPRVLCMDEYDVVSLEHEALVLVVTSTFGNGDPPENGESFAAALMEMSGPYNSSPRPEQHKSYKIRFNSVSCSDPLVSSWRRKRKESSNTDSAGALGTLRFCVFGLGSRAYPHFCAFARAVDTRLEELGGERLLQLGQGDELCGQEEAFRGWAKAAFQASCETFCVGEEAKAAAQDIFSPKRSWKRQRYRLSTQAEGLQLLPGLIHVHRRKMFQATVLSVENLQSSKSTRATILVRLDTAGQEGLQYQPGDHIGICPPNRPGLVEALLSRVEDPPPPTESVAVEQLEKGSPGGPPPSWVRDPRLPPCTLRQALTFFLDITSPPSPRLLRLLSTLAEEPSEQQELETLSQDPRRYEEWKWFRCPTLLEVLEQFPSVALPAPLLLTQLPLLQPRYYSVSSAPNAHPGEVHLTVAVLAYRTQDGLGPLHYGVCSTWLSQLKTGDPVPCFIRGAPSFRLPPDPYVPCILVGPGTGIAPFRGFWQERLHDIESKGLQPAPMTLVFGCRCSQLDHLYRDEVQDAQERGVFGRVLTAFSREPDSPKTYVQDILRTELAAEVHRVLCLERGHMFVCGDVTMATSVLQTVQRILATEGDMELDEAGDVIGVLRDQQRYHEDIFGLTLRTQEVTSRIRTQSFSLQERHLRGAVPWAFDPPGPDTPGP
Protocol: (§2) NOS activity measurements were performed using recombinant rat NNOS (purified from overexpressing HEK293 cells), recombinant bovine ENOS (purified from overexpressing E. coli) or native INOS (from immunostimulant-activated rat aortic smooth muscle cells). Activity was determined with 1-20 pmole of NOS using a kinetic 96-well microtiter plate assay based on the kinetics of NADPH consumption (NNOS and ENOS) or Fe^2+-myoglobin oxidation. Radioligand binding was performed after incubation of 1-2 pmole of NOS for 15 minutes at 23° C. with either Bolton-Hunter labelled [125I]-calmodulin (1 nM) or [3H]-N-nitro-L-arginine (200 pM) and the indicated peptides. Values are means ±SEM of triplicate determinations.

[4] = target: T2, recombinant rat NNOS (Rattus norvegicus, UniProt P29476); experiment: as above; type: biochemical; conditions: mean ± SEM, triplicate
T2 construct: made in house; host or cells: HEK293 cells
T2 sequence (P29476 whole entry): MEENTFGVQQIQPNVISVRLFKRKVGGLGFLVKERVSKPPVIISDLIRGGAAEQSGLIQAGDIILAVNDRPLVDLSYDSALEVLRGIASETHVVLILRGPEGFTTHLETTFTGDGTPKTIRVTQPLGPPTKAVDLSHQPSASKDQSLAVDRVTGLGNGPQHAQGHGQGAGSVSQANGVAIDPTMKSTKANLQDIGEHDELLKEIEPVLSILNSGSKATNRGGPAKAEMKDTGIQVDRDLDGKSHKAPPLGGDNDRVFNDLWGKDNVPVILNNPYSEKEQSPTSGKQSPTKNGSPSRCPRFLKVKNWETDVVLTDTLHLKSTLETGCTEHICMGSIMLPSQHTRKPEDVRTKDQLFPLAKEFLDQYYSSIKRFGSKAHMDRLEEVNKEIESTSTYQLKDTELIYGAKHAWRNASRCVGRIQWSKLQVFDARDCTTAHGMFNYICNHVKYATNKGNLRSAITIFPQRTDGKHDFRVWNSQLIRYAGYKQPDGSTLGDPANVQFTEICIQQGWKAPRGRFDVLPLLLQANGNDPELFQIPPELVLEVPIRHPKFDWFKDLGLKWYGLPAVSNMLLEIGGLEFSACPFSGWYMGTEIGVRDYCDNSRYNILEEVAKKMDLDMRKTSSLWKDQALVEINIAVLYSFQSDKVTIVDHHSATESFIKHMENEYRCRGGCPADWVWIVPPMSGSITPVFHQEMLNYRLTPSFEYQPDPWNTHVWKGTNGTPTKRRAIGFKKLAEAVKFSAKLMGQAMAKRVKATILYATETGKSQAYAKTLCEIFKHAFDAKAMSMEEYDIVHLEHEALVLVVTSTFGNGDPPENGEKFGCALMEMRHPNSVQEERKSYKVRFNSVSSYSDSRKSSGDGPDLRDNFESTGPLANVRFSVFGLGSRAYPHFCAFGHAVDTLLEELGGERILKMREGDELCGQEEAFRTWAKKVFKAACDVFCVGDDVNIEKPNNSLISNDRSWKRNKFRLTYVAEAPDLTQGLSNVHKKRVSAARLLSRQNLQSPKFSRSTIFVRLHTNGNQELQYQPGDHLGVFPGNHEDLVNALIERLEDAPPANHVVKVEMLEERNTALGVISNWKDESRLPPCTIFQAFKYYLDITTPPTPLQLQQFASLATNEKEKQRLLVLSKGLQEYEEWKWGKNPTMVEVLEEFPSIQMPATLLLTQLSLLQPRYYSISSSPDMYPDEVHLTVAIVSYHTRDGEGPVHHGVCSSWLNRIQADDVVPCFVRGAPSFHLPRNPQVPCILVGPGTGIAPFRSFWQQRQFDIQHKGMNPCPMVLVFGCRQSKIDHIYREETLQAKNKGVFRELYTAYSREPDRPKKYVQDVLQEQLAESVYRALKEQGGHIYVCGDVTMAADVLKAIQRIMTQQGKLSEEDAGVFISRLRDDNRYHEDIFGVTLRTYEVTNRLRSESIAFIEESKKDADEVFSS
Protocol: as §2

[5] = target: T3, native INOS (from immunostimulant-activated rat aortic smooth muscle cells) (Rattus norvegicus, UniProt Q06518); experiment: NOS activity, kinetic 96-well microtiter plate assay, Fe2+-myoglobin oxidation; type: biochemical; conditions: mean ± SEM, triplicate
T3 construct: endogenous in cells
Protocol: as §2

[6] = tested on: NOS; experiment: Radioligand binding of [3H]-N-nitro-L-arginine to NOS; parameters: scale not given here; conditions: ligand 200 pM, 15 minutes at 23° C., mean ± SEM
Protocol: as §2

[7] = tested on: NOS; experiment: Radioligand binding of [125I]-calmodulin to NOS; parameters: scale not given here; conditions: ligand 1 nM, 15 minutes at 23° C., mean ± SEM
Protocol: as §2

Chain of NNOS (P29476 whole entry): as above

Substance | NNOS CAM Binding [1] [counts] | INOS Activity 0.1 mg/ml [2] | NOS Activity (% of control) ENOS ([3]; peptide 100 μg/ml) | NOS Activity (% of control) NNOS ([4]; peptide 100 μg/ml) | NOS Activity (% of control) INOS ([5]; peptide 100 μg/ml) | Ligand binding to NOS [3H]-NHA ([6]; peptide 100 μg/ml) | Ligand binding to NOS [125I]-CAM ([7]; peptide 100 μg/ml) | INOS activity 0.3 mg/ml [2] | INOS Activity 1.0 mg/ml [2] | NOS Activity (% of control) ENOS ([3]; peptide 300 μg/ml) | NOS Activity (% of control) NNOS ([4]; peptide 300 μg/ml) | NOS Activity (% of control) INOS ([5]; peptide 300 μg/ml) | Ligand binding to NOS [3H]-NHA ([6]; peptide 300 μg/ml) | Ligand binding to NOS [125I]-CAM ([7]; peptide 300 μg/ml)
KASTLEEEQ [BO58-06, 26] | 951 ± 100 | 15.3 ± .32 |  |  |  |  |  |  |  |  |  |  |  | 
SDSRKSSGDGPDLR [BO58-11, 18] | 908 ± 56 | 14.7 ± .94 | 102.6 ± 4.1 % of control | 98.4 ± 1.9 % of control | 99.7 ± 2.8 % of control | 119.2 ± 3.4 | 89.2 ± 6.2 |  |  |  |  |  |  | 
QEERKSYKVRF [BO58-09, 16] | 686 ± 43 | 14.7 ± .28 | 93.6 ± 2.3 % of control | 102.0 ± 2.1 % of control | 101.1 ± 3.7 % of control | 118.9 ± 4.1 | 82.7 ± 1.1 |  |  |  |  |  |  | 
DIVHLEHES [BO58-05, 25] | 952 ± 52 | 14.6 ± .03 |  |  |  |  |  |  |  |  |  |  |  | 
SSPRPEQHKSYKIRFNSVSCSDPLVSSWRRKRKESS [JX2, 14] | 1356 ± 46 | 13.1 ± .11 |  |  |  |  |  | 7.7 ± .11 | 3.2 ± .11 | 57.2 ± 7.5 % of control | 30.4 ± 1.7 % of control | 62.2 ± 2.8 % of control | 116.3 ± 1.9 | 0.0 ± 7.4
AVDTRLEELGGERT [BO58-01, 35] | 986 ± 58 | 15.0 ± .73 |  |  |  |  |  |  |  |  |  |  |  | 
QHKSYKIRFNSVSCSDPLVSSWRRKRKE [JX3, 15] | 674 ± 100 | 12.9 ± .32 |  |  |  |  |  | 7.9 ± .11 | 2.9 ± .32 | 40.2 ± 4.0 % of control | 28.2 ± 0.9 % of control | 64.3 ± 3.2 % of control | 122.4 ± 1.0 | 0.0 ± 4.8
QEERKSYKVRFNSVSSYSDSQKSSGDGPDL [JX4, 19] | 659 ± 41 | 14.1 ± .57 |  |  |  |  |  | 10.4 ± .57 | 8.4 ± .57 | 80.2 ± 3.8 % of control | 103.0 ± 1.3 % of control | 84.1 ± 3.5 % of control | 95.7 ± 4.7 | 82.7 ± 1.1
DIDQKLSHLGASQT [BO58-03, 23] | 863 ± 19 | 14.4 ± .27 |  |  |  |  |  |  |  |  |  |  |  | 
RPEQHKSYKIRF [BO58-10, 17] | 1339 ± 49 | 14.6 ± .02 | 80.5 ± 2.0 % of control | 54.5 ± 1.8 % of control | 99.7 ± 5.7 % of control | 115.0 ± 8.6 | 24.7 ± 2.2 |  |  |  |  |  |  | 
AVDTLLEELGGERT [BO58-02, 22] | 953 ± 80 | 15.1 ± .03 |  |  |  |  |  |  |  |  |  |  |  | 
DDVVSLEHET [BO58-04, 24] | 903 ± 57 | 15.8 ± .73 |  |  |  |  |  | 14.9 ± .56 |  |  |  |  |  | 
WRRKRK [BO58-07, 12] | 1749 ± 40 | 13.6 ± .31 | 24.0 ± 2.8 % of control | 11.0 ± 3.3 % of control | 91.1 ± 5.7 % of control | 91.7 ± 5.1 | 6.7 ± 3.6 |  |  |  |  |  |  | 
